Data on two molecules can be found in paper PMC8079274, “Calmodulin influences MAPK signaling by binding KSR1” (The Journal of Biological Chemistry, 2021).

The target in one assay is T1, pure calmodulin (UniProt P0DP23 1-149).
T1 construct: Pure calmodulin from Ocean Biologics; also called purified calmodulin; CaM; source: bought: Ocean Biologics
Nature of the assay: pull-down; 2 μg pure calmodulin in lysis buffer B with 1 mM Ca^2+ with GST-KSR1 constructs on glutathione-Sepharose beads, 3 h at 4 °C; blot with anti-calmodulin. The following applies: both partners purified.

Assay [1] addresses T2, calmodulin-Sepharose (calmodulin coupled to Sepharose beads) (UniProt P0DP23 1-149).
T2 construct: Calmodulin coupled to Sepharose; also called CaM; source: bought: GE Healthcare (17-0529-01), calmodulin-Sepharose beads
Nature of the assay: pull-down; 500 ng purified His-KSR1 with 30 μl calmodulin-Sepharose or GST-Sepharose, lysis buffer B (50 mM Tris-HCl pH 7.4, 150 mM NaCl, 1% Triton-X 100) with 1 mM CaCl2, 3 h at 4 °C; blot with anti-KSR1. The following applies: both partners purified.

B1: GST-KSR1-M (amino acid residues 319–433) (domain or fragment)
chain: GSPQLVRRDIGLSVTHRFSTKSWLSQVCNVCQKSMIFGVKCKHCRLKCHNKCTKEAPACRITFLPLARLRRTESVPSDINNPVDRAAEPHFGTLPKALTKKEHPPAMNLDSSSNP
notes: Vector pGEX2T-TEV; also called M-fragment; pGEX2T-TEV-KSR1-M; source: E. coli, isolated with glutathione-Sepharose beads
For B1, the binding result with pure calmodulin is “binds”.

B2: His-tagged full-length KSR1 (kinase suppressor of Ras1) (natural protein)
chain: MDRAALRAAAMGEKKEGGGGGAAADGGAGAAVSRALQQCGQLQKLIDISIGSLRGLRTKCSVSNDLTQQEIRTLEAKLVKYICKQQQSKLSVTPSDRTAELNSYPRFSDWLYIFNVRPEVVQEIPQELTLDALLEMDEAKAKEMLRRWGASTEECSRLQQALTCLRKVTGLGGEHKMDSGWSSTDARDSSLGPPMDMLSSLGRAGASTQGPRSISVSALPASDSPVPGLSEGLSDSCIPLHTSGRLTPRALHSFITPPTTPQLRRHAKLKPPRTPPPPSRKVFQLLPSFPTLTRSKSHESQLGNRIDDVTPMKFELPHGSPQLVRRDIGLSVTHRFSTKSWLSQVCNVCQKSMIFGVKCKHCRLKCHNKCTKEAPACRITFLPLARLRRTESVPSDINNPVDRAAEPHFGTLPKALTKKEHPPAMNLDSSSNPSSTTSSTPSSPAPFLTSSNPSSATTPPNPSPGQRDSRFSFPDISACSQAAPLSSTADSTRLDDQPKTDVLGVHEAEAEEPEAGKSEAEDDEEDEVDDLPSSRRPWRGPISRKASQTSVYLQEWDIPFEQVELGEPIGQGRWGRVHRGRWHGEVAIRLLEMDGHNQDHLKLFKKEVMNYRQTRHENVVLFMGACMNPPHLAIITSFCKGRTLHSFVRDPKTSLDINKTRQIAQEIIKGMGYLHAKGIVHKDLKSKNVFYDNGKVVITDFGLFGISGVVREERRENQLKLSHDWLCYLAPEIVREMIPGRDEDQLPFSKAADVYAFGTVWYELQARDWPFKHQPAEALIWQIGSGEGVRRVLASVSLGKEVGEILSACWAFDLQERPSFSLLMDMLERLPKLNRRLSHPGHFWKSADINSSKVMPRFERFGLGTLESGNPKM
notes: Kinase suppressor of Ras1 (KSR1), full length; Plasmid pTrace-His-KSR1 was a gift (Piero Crespo); the construct is not described further; also called His-KSR1; purified KSR1; source: 90% pure
As to B2, in assay [1], the binding result was “binds”.
